Laboratory results from the Human Domainome abundance scans (Beltran et al. 2025).
± gives the uncertainty stated by the source.

B1: Peripheral plasma membrane protein CASK, residues 488 to 569; numbered along this chain, O14936 (parent)
chain: VRLVQFQKNTDEPMGITLKMNELNHCIVARIMHGGMIHRQGTLHVGDEIREINGISVANQTVEQLQKMLREMRGSITFKIVP

Variants of: B1
Experiment: abundance fitness (aPCA) (normalised: wild type 0, dead -1); higher = more abundant; growth selection in yeast, the domain comes from the species named
Conditions: Homo sapiens

Variant	abundance fitness
V4R	-0.265 ± 0.023
V4T	-0.239 ± 0.037
V4M	-0.138 ± 0.037
N59H	-0.006 ± 0.044
N59G	0.02 ± 0.022
N59K	-0.068 ± 0.039
N59A	-0.047 ± 0.027
N59Y	-0.1 ± 0.047
N59R	-0.09 ± 0.023
N59V	-0.164 ± 0.026
D47C	-0.552 ± 0.15
T42F	-0.021 ± 0.037
T42Y	-0.076 ± 0.037
T42N	-0.039 ± 0.046
Q7A	-0.025 ± 0.024
Q7H	0.009 ± 0.043
Q7F	-0.021 ± 0.041
Q7K	-0.017 ± 0.029
K19T	-0.009 ± 0.03
K19E	-0.029 ± 0.037
K19P	-0.999 ± 0.1

Variant	abundance fitness
E22S	-0.022 ± 0.031
E22N	-0.075 ± 0.071
E22W	-0.138 ± 0.033
E22I	-0.185 ± 0.067
E22M	-0.078 ± 0.041
E22Y	0.028 ± 0.066
E22K	-0.004 ± 0.042
F6H	-0.181 ± 0.053
F6L	0.053 ± 0.023
C26W	-0.031 ± 0.026
C26P	0.015 ± 0.029
C26Y	-0.07 ± 0.048
I76K	-1.11 ± 0.13
I76M	-0.082 ± 0.049
M72A	0.022 ± 0.024
M72S	0.007 ± 0.026
M72D	-0.182 ± 0.034
M72P	-0.244 ± 0.045
M72V	-0.008 ± 0.023
K67N	0.003 ± 0.057
K67P	-0.292 ± 0.04

Variant	abundance fitness
K67S	-0.038 ± 0.029
K67T	0.001 ± 0.032
K67H	0.029 ± 0.057
R50M	0 ± 0.054
R50E	-0.068 ± 0.037
R50Y	-0.174 ± 0.09
R50P	-0.774 ± 0.13
G54P	-0.911 ± 0.13
G54F	-0.043 ± 0.079
G54T	-0.17 ± 0.049
G54L	-0.636 ± 0.066
N9H	-0.027 ± 0.04
N9G	-0.027 ± 0.02
N9L	0.019 ± 0.024
N9E	0.055 ± 0.026
R73G	-0.022 ± 0.021
R73V	-0.038 ± 0.024
R73C	-0.011 ± 0.038
R73T	-0.003 ± 0.031
G35C	-0.066 ± 0.035
G35M	-0.128 ± 0.038

Variant	abundance fitness
G35F	-0.243 ± 0.057
G35E	-0.187 ± 0.029
G35L	-0.268 ± 0.027
G35H	-0.068 ± 0.057
N21Q	-0.226 ± 0.034
N21F	-0.415 ± 0.05
N21M	-0.258 ± 0.033
N21E	-0.136 ± 0.032
N21C	-0.201 ± 0.042
N21I	-0.201 ± 0.041
Q64T	-0.025 ± 0.027
Q64F	0.007 ± 0.037
Q64K	-0.018 ± 0.029
I80D	-1.32 ± 0.44
I80M	-0.169 ± 0.046
T61K	-0.054 ± 0.035
T61C	-0.129 ± 0.031
T61L	-0.41 ± 0.029
L23C	0.013 ± 0.035
L23E	0.086 ± 0.028
